Reference: the supplement of paper PMC10567573
± gives the standard deviation.

Experiment: protein stability index of a GFP-peptide fusion (GPS, HEK-293T) (PSI 1-6); higher = more stable
[1] = treatment: DMSO, c terminus: a fixed tail appended
[2] = treatment: MLN4924 1 uM, 8 h, c terminus: a fixed tail appended
[3] = treatment: DMSO, c terminus: native
[4] = treatment: MLN4924 1 uM, 8 h, c terminus: native
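Further: 24-mer peptide tiles fused after GFP, lentivirally expressed, FACS-sorted into six equal bins by GFP/DsRed ratio, decoded by Illumina sequencing, PSI is the read-weighted mean bin number.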

| Sequence | protein stability index [1] | protein stability index [2] | protein stability index [3] | protein stability index [4] |
| --- | --- | --- | --- | --- |
| SLSHTELEAAEVILEHAHRGEQTT [FCHSD1] | 5.22 ± 0.26 | 5.28 ± 0.11 |  |  |
| KRQVPTEQARAYAEKNCMTFFEVS [RAB40C] | 3.16 ± 0.36 | 3.29 ± 0.37 |  |  |
| VLVILISIVIFCLETLPEFRDEKD [KCNA3] | 2.54 ± 0.81 | 2.25 ± 0.88 |  |  |
| NLKWLDLKDNPLDPVLAKVAGDCL [LRRC59] | 3.21 ± 0.26 | 3.08 ± 0.19 |  |  |
| DSSHDSARASEGSDSGSDKSLEGG [SMG5] | 5.54 ± 0.31 | 5.51 ± 0.31 |  |  |
| VVGNWQYFFPVIFSKASSSLQLVF [MAGEA3] | 3.28 ± 0.46 | 3.11 ± 0.55 |  |  |
| DYWLRRFEAEPLPENTNRQLLLQF [PI4K2A] | 2.41 ± 0.21 | 2.35 ± 0.27 |  |  |
| WFSCQGPFDMDSCLSRHSINPYSN [DFFB] | 2.35 ± 0.24 | 2.2 ± 0.27 |  |  |
| ELFAWGRGDSGRLGLGTRESHSCP [NEK8] | 2.95 ± 0.26 | 3.27 ± 0.22 |  |  |
| FGPDSKSSALACTLPTLPAKVYVG [NCF4] | 2.74 ± 0.12 | 3.03 ± 0.43 |  |  |
| ESSTRLLLEKNASVNEVDFEGRTP [RIPK4] | 4.83 ± 0.79 |  |  |  |
| HFSLRVQSRANGVKYPELVLEHSL [PCDHGA10] | 2.35 ± 0.29 | 2.27 ± 0.35 |  |  |
| ERKQALYEYARRRFTERRAQEAD [AUP1] |  |  | 4.22 ± 0.15 | 4.25 ± 0.29 |
| MVSALRGAPLIRVHSSPVSSPSVS [SPACA3] | 2.85 ± 0.39 | 3.08 ± 0.3 |  |  |
| KFMLREQFEANGYFFKRPYPFVLF [KMT2E] | 3.41 ± 0.39 | 2.73 ± 0.97 |  |  |
| YKKIYFCHSCQLYLPSTEFSVSST [IQUB] | 2.39 ± 0.23 | 2.08 ± 0.22 |  |  |
| GSAAGHVLVKDNGLGCKDLDLIFH [TENT5C] | 2.59 ± 0.32 | 2.84 ± 0.44 |  |  |
| HSSPVDLKIPQVRGMDLSWESRTG [LCOR] | 3.43 ± 0.33 | 3.65 ± 0.31 |  |  |
| HMFVWGGYKSNQVRGLYDFYLPRE [KLHDC2] | 2.24 ± 0.26 | 2.19 ± 0.5 |  |  |
| KEEAQAEIEQYRLQREKEFKAKEA [ATP6V1G1] | 5.5 ± 0.21 | 5.58 ± 0.38 |  |  |
| SGRLMGSPPVPGPSAALTTMQLFS [FBXO28] | 2.71 ± 0.25 | 2.63 ± 0.21 |  |  |
| GAFLRTCLLSSNSRSLLTGGYNLA [TLE6] | 2.72 ± 0.32 | 2.79 ± 1.1 |  |  |
| EKLKVAPPNADLEQGFQEGVPNAS [MFF] | 5.28 ± 0.17 | 5.22 ± 0.17 |  |  |

| Sequence | protein stability index [1] | protein stability index [2] | protein stability index [3] | protein stability index [4] |
| --- | --- | --- | --- | --- |
| GGLIYWIGLTKAGMEGDWSWVDDT [CD207] | 2.12 ± 0.7 | 3.07 ± 1.4 |  |  |
| QLLYSPIENIQRVAAGVLCELAQD [CTNNB1] | 2.29 ± 0.24 | 2.27 ± 0.27 |  |  |
| TVASMMHRQETVECLKKFNARRKL [CAMK2B] | 3.41 ± 0.4 | 3.74 ± 0.33 |  |  |
| DMSIGGNLSKTQNMERFGEDNLED [CDC14A] | 5.27 ± 0.14 | 5.34 ± 0.21 |  |  |
| SSASSEQGLLGRSPPTRPVPGHRS [SPRY1] | 4.82 ± 0.27 | 4.8 ± 0.12 |  |  |
| ARRQHLKSVMLQIAATELEKEESR [TNNI2] | 4.31 ± 0.23 | 4.36 ± 0.33 |  |  |
| APLRKLSVDLIKTYKHINEVYYAK [DYRK1B] | 2.84 ± 0.15 | 2.96 ± 0.25 |  |  |
| ISLWPREPPPKSGPSLVPGKTPTV [CD207] | 3.06 ± 0.18 | 3.43 ± 0.084 |  |  |
| CGKCFSQNTHLTRHQRTHTGEKPY [ZNF263] | 2.94 ± 0.16 | 3.22 ± 0.14 |  |  |
| SGLVRRLWRSRVVPDREEGGSGGG [SMAD6] | 3.91 ± 0.6 | 4.33 ± 0.36 |  |  |
| DDRNTACHHGLVADSLQASMEKDA [DLC1] | 5.15 ± 0.13 | 5.16 ± 0.16 |  |  |
| TLQHWPHIIRIGDLKPTGEIPKQV [DENND6A] | 2.3 ± 0.29 | 2.74 ± 0.24 |  |  |
| VAGEFSEPVTLETPAFMFRLDAST [FSD1] | 3.1 ± 0.27 | 3.16 ± 0.19 |  |  |
| AHQQKKHSGFEDELSEVLENQSSQ [CHGA] | 5.28 ± 0.26 | 5.25 ± 0.34 |  |  |
| IAKNLVEKGILTTEKQNFLLFDMT [GOLPH3L] | 2.06 ± 0.18 | 2.15 ± 0.22 |  |  |
| DAAYRKALDLAREFLPQGPVAMRV [AUH] | 2.25 ± 0.64 | 2.19 ± 0.33 |  |  |
| SRPELLQPLNFVRFYLPLLIHQHE [GLT8D2] | 3.09 ± 0.33 | 3.14 ± 0.59 |  |  |
| KTAGKENHFDMHRVGKWHQDFPVK [ZNF75A] | 3.09 ± 0.36 | 3.38 ± 0.13 |  |  |
| GQTYVDAGYEVDKIAQNLDFVNLM [CHIT1] | 3.01 ± 0.27 | 3.23 ± 0.45 |  |  |
| KKRKVDGLSTEAEQPFIPVEVLVD [PRAME] | 3.8 ± 0.52 | 4.04 ± 0.27 |  |  |
| GYNPDYDESGGPDNEDYPLFRELW [KLHDC10] | 3.37 ± 0.36 | 3.47 ± 0.18 |  |  |
| WGFRLVGGRDFSAPLTISRVHAGS [PDLIM4] | 2.02 ± 0.24 | 2.17 ± 0.32 |  |  |
| TLHGVVNESTVCLMSYERRQILHL [TENT5D] | 2.35 ± 0.54 | 2.44 ± 0.4 |  |  |

| Sequence | protein stability index [1] | protein stability index [2] | protein stability index [3] | protein stability index [4] |
| --- | --- | --- | --- | --- |
| ALVETSYVKVLHHMVKISGGPHIS [MAGEA3] | 2.8 ± 0.52 | 2.82 ± 0.78 |  |  |
| PPHPAPAPQHPAASALRTRMTGGR [DYRK1B] | 4.86 ± 0.23 | 4.9 ± 0.13 |  |  |
| ASDPLLSSVSPAVSKASSRRSSFS [TFE3] | 4.69 ± 0.15 | 4.79 ± 0.25 |  |  |
| DGTGASQEPPTTDSQEAQSPGHSS [TOR1AIP2] | 5.56 ± 0.26 | 5.54 ± 0.24 |  |  |
| KFSGLYILSFTVIMVGFILYCSTP [SLC35F2] | 3.22 ± 0.4 | 3.17 ± 0.24 |  |  |
| PKGEPGSKQSPPMASSPIQPRKGG [FBF1] | 5.33 ± 0.1 | 5.38 ± 0.091 |  |  |
| EKHCEFKQLALDHFKKTKKMGGKD [ATL3] | 4.64 ± 0.14 | 4.57 ± 0.39 |  |  |
| AAKQLEYQQLEDDKLSQKSSSSKL [EPB41L3] | 5 ± 0.64 | 4.92 ± 0.33 |  |  |
| AMCVGCGSQIHDQFILRVSPDLEW [ISL2] | 2.18 ± 0.36 | 2.16 ± 0.21 |  |  |
| ARPSSASIRDANLYVSGLPKTMSQ [ELAVL3] | 4.08 ± 0.61 | 3.81 ± 0.098 |  |  |
| RLCFFPFVENGHSESSGQTHLEGD [CFHR2] | 4.01 ± 0.099 | 4.37 ± 0.15 |  |  |
| MEKSSFTEYIESPDVENEVKRLLR [TAF7L] | 3.79 ± 0.28 | 3.83 ± 0.23 |  |  |
| AACLYLVCRTEGTPHMLLDLSDLL [BRF1] | 3.31 ± 0.47 | 2.85 ± 0.43 |  |  |
| VEWAKYIPAFCELPLDDQVALLRA [HNF4A] | 2.42 ± 0.64 | 2.44 ± 0.42 |  |  |
| LKTQSLEGKRKAFYTCASHVTVVI [OR4A15] | 2.91 ± 0.35 | 3.24 ± 0.46 |  |  |
| EINKRTAAENEFVLLKKDVDAAYA [KRT71] | 3.76 ± 0.26 | 4.24 ± 0.24 |  |  |
| TGKAPSPRAAHACATVGNRGFVFG [KLHDC2] | 2.38 ± 0.11 | 2.21 ± 0.19 |  |  |
| RVTTEQYQKAAEEVEAKFKRYESH [CHCHD3] | 4.66 ± 0.14 | 4.7 ± 0.12 |  |  |
| STPKLTSRSAAQDLDRMGVMTLPS [PPFIA4] | 4.03 ± 0.28 | 3.97 ± 0.056 |  |  |
| LVQVESVNLQVATYSKFQPQSPDF [UFD1] | 2.32 ± 0.22 | 2.35 ± 0.32 |  |  |
| ERRRGPAAGEQLQQQHVSCQVFPE [ATP23] | 4.6 ± 0.21 | 4.72 ± 0.36 |  |  |
| LLAWRCTKLSLLAIHGYTVWAHNL [FBXO33] | 3.15 ± 0.21 | 3.13 ± 0.34 |  |  |
| SAPLQGAVPPTSSVPPVAGAPSVG [SNAP91] | 4.91 ± 0.19 | 4.99 ± 0.081 |  |  |

| Sequence | protein stability index [1] | protein stability index [2] | protein stability index [3] | protein stability index [4] |
| --- | --- | --- | --- | --- |
| ELLTLVNRKVSQRRVDFCKDPSAI [CASP6] | 2.22 ± 0.36 | 2.24 ± 0.14 |  |  |
| NCSIGPNVSLGPGVVVEDGVCIRR [GMPPB] | 4.29 ± 0.3 | 4.393 ± 0.043 |  |  |
| YMVQDQHECILPFVQVKGNFARLQ [M1AP] | 2.56 ± 0.37 | 2.55 ± 0.42 |  |  |
| IVWSLAFGSSVPEKQSRCVNIEWH [WSB1] | 2.92 ± 0.36 | 2.93 ± 0.21 |  |  |
| KFSPFGQWWASVGMDDFLGVYSMP [TLE6] | 2.62 ± 0.67 | 2.35 ± 0.4 |  |  |
| ALHSLTQAGDYSMRVDLRAGDEAV [TNXB] | 3.39 ± 0.57 | 3.6 ± 0.49 |  |  |
| SRRYNRKEPAEFNGDGAFLHDNHE [ZNF649] | 4.73 ± 0.43 | 4.45 ± 0.13 |  |  |
| LQVTEDVNSSIKTFFCPNDTYNDM [CLCN6] | 3.66 ± 0.22 | 3.65 ± 0.25 |  |  |
| LIIQAGIKEVIFMSDKYHDSDEAT [DCTD] | 2.16 ± 0.28 | 2.08 ± 0.089 |  |  |
| TLSPHQYHSVHGVGMVPEWSDNS [TBX5] |  |  | 4.01 ± 0.29 | 3.8 ± 0.14 |
| AVAGPPAAAEVGGGVGGSSRARSA [ANKRD17] | 5.36 ± 0.22 | 5.14 ± 0.33 |  |  |
| IEKEVFPIMAKEGQLYAMELQGFW [GMPPB] | 2.77 ± 0.44 | 2.27 ± 0.37 |  |  |
| TAHLYSLLQTQHALGDAFADLSQK [ARFIP2] | 2.18 ± 0.25 | 2.22 ± 0.23 |  |  |
| SDSGDGVYAGRPLSVIQMVAFLEQ [FBXO34] | 2.92 ± 0.15 | 3.02 ± 0.34 |  |  |
| WGEGLHQLREALKILAERVLILET [EMID1] | 2.47 ± 0.24 | 2.78 ± 0.31 |  |  |
| MGNLVMFRKDSVLNILIQSLDWET [INTS3] | 2.68 ± 0.64 | 2.82 ± 0.45 |  |  |
| SDPQTVAGAFGYFQQDTKGLVDFR [LPCAT4] | 3.68 ± 0.41 | 3.71 ± 0.29 |  |  |
| SFNHNAHLTVHKRIHTGERPYMCK [ZNF8] | 2.76 ± 0.2 | 2.9 ± 0.22 |  |  |
| SKTNLIVNYLPQNMTQDEFKSLFG [ELAVL3] | 2.63 ± 0.28 | 2.79 ± 0.22 |  |  |
| MGGTQQQFVEGVRMEEIVEGCTGA [CTNNB1] | 5.09 ± 0.15 | 5.1 ± 0.072 |  |  |
